Reference: PMC11852929 (Journal of Virology, 2025)

Target: T1, SARS-CoV-2 Omicron BA.5 S ectodomain trimer (BA.5-Spike-6P) (SARS-CoV-2 Omicron BA.5, S375F | D405N | R408S | K417N | Q498R | N501Y | Y505H)
T1 construct: also called BA.5 spike (S) trimer; BA.5 S trimer
Assay: cryo-EM structure
Details: both partners purified

B1: ORB10 fragment antigen-binding region (Fab) (Fab, V domains shown)
VH: QVQLQQSGAELVRPGSSVKISCKASGYAFSNYWMNWVKQRPGEGLEWIGQIYPGDGDTDYNGKFKGRATLTADKSSSTAYMQLSSLTSEDSAVYFCARGDDGYYVYFDYWGQGTTLTVSS
VL: EIVLTQSPALMAASPGEKVTITCSVSSSIGSNNLHWYQQKSETSPKPWIYGTSNLASGVPVRFSGSGSGTSYSLTISTMEAEDAATYYCQQWSGYPLTFGGGTKLEIK
notes: also called ORB10 Fab
  stoichiometry N: 2 Fabs per S trimer
